# In PMC9435597, “Medical contrast agents as promising tools for biomacromolecular SAXS experiments” (Acta Crystallographica. Section D, Structural Biology, 2022):
# B1: protease 1 from Pyrococcus horikoshii (enzyme)
# chain: MKVLFLTANEFEDVELIYPYHRLKEEGHEVYIASFERGTITGKHGYSVKVDLTFDKVNPEEFDALVLPGGRAPERVRLNEKAVSIARKMFSEGKPVASICHGPQILISAGVLRGRKGTSYPGIKDDMINAGVEWVDAEVVVDGNWVSSRVPADLYAWMREFVKLLK
# notes: protease 1 (P1) from Pyrococcus horikoshii; Hexamer; also called P1; source: purified following existing protocols (Engilberge et al., 2017)
# Target: the molecule itself
# Experiment: SAXS; P1 in solution, 20 mM Tris pH 7.5, 150 mM NaCl, 15°C, flow mode, SWING beamline; contrast series with Gd-HPDO3A (up to 1341 mM) or iohexol (up to 618 mM); CRYSOL fits with a hexameric atomic model, linearity of I(0)^1/2, Rg
protein,measurement,value
B1,stoichiometry N,6
